For one series, the system named is MS2 coat protein. Kind of series: apparent KD of MS2 coat protein; higher = weaker reporter binding. The note with it: Eterna round: R107. The method, then: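 RNA-MaP round R107: designed RNA switches with theophylline, tryptophan, arginine or FMN aptamers are transcribed on-chip within common flanks. They are titrated with SNAP-549-labelled MS2 coat protein in RNA-MaP buffer (100 mM Tris pH 7.5, 80 mM KCl, 4 mM MgCl2), without ligand or with the indicated ligand. Median apparent KD per design.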

Series [1] concerns K4 kissing-loop RNA reporter. Kind of series: apparent KD of K4 kissing-loop reporter; higher = weaker reporter binding. The note with it: Eterna round: R107. As for the experimental part: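 RNA-MaP round R107: designed RNA switches with theophylline, tryptophan, arginine or FMN aptamers are transcribed on-chip within common flanks. They are titrated with a labelled K4 kissing-loop RNA reporter in RNA-MaP buffer (100 mM Tris pH 7.5, 80 mM KCl, 4 mM MgCl2), without ligand or with the indicated ligand. Median apparent KD per design.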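 Further: bound reporter read as fluorescence of individual clusters on recovered sequencing chips by microscopy, with normalized cluster intensities fitted with a binding model.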

The mark [2] stands for this setting: input ligand: theophylline 20 uM.
Setting [3] is: input ligand: theophylline 2 mM.
Where [4] appears, read: input ligand: tryptophan 2.4 mM.

This note sets out measurements from the supplement of paper PMC9170038.

For “AAUGUAUUCCACAUGAGGAUCACCCAUGUGCGAGGACCGGUACGGCCGCCACUCGGUGUUGGGAUCUGUUCUGAAUACAUUAAUG [XTryp A #23]”, the “apparent KD of MS2 coat protein” value in the series on MS2 coat protein (input ligand: arginine 13.2 mM) worked out at 30.8 nM; with MS2 coat protein (setting [2]), 37.5 nM; with MS2 coat protein (setting [3]), 40.3 nM.
Turning to “AGCCCGGGAGCGGCCGCCACUGGAGGCUUUGCGCGACAUGAGGAUCACCCAUGUGUGCCCGGCGUUAGGACCGGGCUCGCGUGGU [#1 Same State - Tryptophan B Attempt #21 (HarryS)]”, the “apparent KD of MS2 coat protein” value turned out to be 27.8 nM in the series on MS2 coat protein (input ligand: arginine 13.2 mM); 33.4 nM in the series with MS2 coat protein (input ligand: none); 32.5 nM with MS2 coat protein (setting [2]); 55.3 nM with MS2 coat protein (setting [3]); 46.9 nM with MS2 coat protein (setting [4]).
Take “GCAUUAUUAUUAGAUACCAGUGUCGCAGGCGACAUGAGGAUCACCCAUGUAAAGUUACUCCACCCUUGGCAGCUAGUUCGACUAC [theeternabot_sameState_MS2_Theo_B_21]”: the “apparent KD of MS2 coat protein” value in the series with MS2 coat protein (input ligand: arginine 13.2 mM) was 56 nM; in the series with MS2 coat protein (setting [2]), 124 nM; with MS2 coat protein (setting [4]), 101 nM.
Take “UGUAACAUGAGGAUCACCCAUGUGAGUGAUACCAGACUAGUGUUAGUCCCUUGGCAGCACGCUGGGCGAGUGUGUAGUCUAUGCG [Same State - Theophylline A (Freestyle 16)]”: the “apparent KD of MS2 coat protein” value in the series on MS2 coat protein (input ligand: arginine 13.2 mM) is 60.9 nM; in the series on MS2 coat protein (input ligand: none) it was 108 nM; in the series on MS2 coat protein (setting [2]) it was 136 nM; in the series with MS2 coat protein (setting [3]) it was 117 nM; in the series with MS2 coat protein (setting [4]), 105 nM.
Consider “AAAUAAAUACAUGAGGAUCACCCAUGUGAAGGAGCGCCCGUUAGGGCAGGUAGGUCGCACAUGAAUAACUCCGCGCGAAAGCGCA [MAT - Exclusion Arginine A - Mod of Eli - D10]”, for which the “apparent KD of MS2 coat protein” value with MS2 coat protein (input ligand: arginine 13.2 mM) worked out at 41.8 nM; in the series on MS2 coat protein (input ligand: none), 38.7 nM; with MS2 coat protein (setting [2]), 37.1 nM; with MS2 coat protein (setting [3]), 52.6 nM; with MS2 coat protein (setting [4]) it was 35.8 nM.
As for “ACUUCAUGAGGUGAUACCAGCCAAUGACAUGAGGACAUGAGGAUCACCCAUGUUUAUGUAGGCCCUUGGCAGCAUUGUAACAUGA [Same State Theophylline B 4]”, the “apparent KD of MS2 coat protein” value in the series with MS2 coat protein (input ligand: arginine 13.2 mM) is 101 nM; in the series on MS2 coat protein (setting [2]) it was 126 nM; in the series on MS2 coat protein (setting [4]), 28.4 nM.
As to “AUACAUGAGGAUCACCCAUGUGAUGGCCGGCGAGGACCGGUACGGCCGCCACUCGUGAUCCGUCCUGAAAGCAAAGCUCUCAACA [Esraleri]”, the “apparent KD of MS2 coat protein” value with MS2 coat protein (input ligand: arginine 13.2 mM) was determined as 95 nM; with MS2 coat protein (setting [2]), 85.3 nM; in the series on MS2 coat protein (setting [3]) it was 303 nM.
For “CUCAUCCACGCGGCCGCCACUAUAUUGUGGUGCGAAUGUGUCGUAAUACAUGAGGAUCACCCAUGUAGGACCGGGCGUGGAUGAG [#09 Exclusion Tryptophan B]” the same measures were 10.3 nM, 14.4 nM and 13.5 nM.
“AUCGUACCUGAUGAUACCAGCAUGUGAUCGUAACAUGAGGAUCACCCAUGUAAUCAGUGAUGCCCUUGGCAGCAUGAUCGGUACA [Same State - Theophylline B (Freestyle 14)]”: the “apparent KD of MS2 coat protein” value is 79.2 nM with MS2 coat protein (input ligand: arginine 13.2 mM), 127 nM in the series with MS2 coat protein (setting [2]) and 94.9 nM with MS2 coat protein (setting [4]).
With “AAACAUGAGGAUCACCCAUGUAUACUUAGACGAGGACCGGUACGGCCGCCACUCGAACUUCAAGAUUUGGCGGAUAAUGUAUGUA [JR_Nu22_ExcTryptoA_Sub023]”, the “apparent KD of MS2 coat protein” value with MS2 coat protein (input ligand: arginine 13.2 mM) is 9.74 nM; in the series on MS2 coat protein (input ligand: none), 10.9 nM; in the series with MS2 coat protein (setting [2]), 16.1 nM; in the series with MS2 coat protein (setting [3]), 11.9 nM; in the series on MS2 coat protein (setting [4]), 11.9 nM.
Consider “GAGACGUCGGGAAGGAGCGCAUCAAAACCACACAUGAGGAUCACCCAUGUAUAAAUAUGCAUGCAGGUAGGUCGCCCGGUGUCCA [SS-ArgB16]”, for which the “apparent KD of MS2 coat protein” value in the series with MS2 coat protein (input ligand: arginine 13.2 mM) was determined as 24.2 nM; with MS2 coat protein (input ligand: none) it was 27.1 nM; in the series with MS2 coat protein (setting [2]), 33.6 nM; in the series with MS2 coat protein (setting [3]), 33.1 nM; with MS2 coat protein (setting [4]) it was 29.1 nM.
As for “AUAACUGUCAAGGAAGGUGAUCCAGCAGAUACCAGCUAGGAAACUAGCCCUUGGCAGCUGCAACAUGAGGAUCACCCAUGUAAUA [(T)'-(M)'-(T1)-(T2)-(M1)-(M2)_Design9]”, the entries for the “apparent KD of MS2 coat protein” value in the series on MS2 coat protein (input ligand: arginine 13.2 mM), in the series with MS2 coat protein (setting [2]) and with MS2 coat protein (setting [4]) were 61 nM, 135 nM and 59.3 nM, respectively.
On to “ACAUGAGGAUCACCCAUGUGUGUAAGUCCUCGAGGACCGGUACGGCCGCCACUCGAACGAGUGAAGCCUGAUACUAAGUAUCAGG [SS Trp A s5]”, for which the “apparent KD of MS2 coat protein” value is 99.6 nM in the series on MS2 coat protein (input ligand: arginine 13.2 mM); 15.4 nM in the series with MS2 coat protein (input ligand: none); 20.7 nM in the series on MS2 coat protein (setting [2]); 14.4 nM in the series with MS2 coat protein (setting [3]); 18.7 nM in the series on MS2 coat protein (setting [4]).
As to “AGUUAUUCGAACAUGGUUGACGAGUGGCAACGAGGACCGGUACGGCCGCCACUCGAAUAAACAUGAGGAUCACCCAUGUACAAAU [T''-M'-T'-T-MS2 - Design 10]”, the “apparent KD of MS2 coat protein” value in the series on MS2 coat protein (input ligand: arginine 13.2 mM) was determined as 72.1 nM; in the series with MS2 coat protein (setting [2]), 264 nM; in the series on MS2 coat protein (setting [3]), 442 nM.
Take “GGAAUUAAGACUGAUACCAGUCAAGAUAAUCAUAAGAAUAAACAUGAGGAUCACCCAUGUGACCCUUGGCAGCAGACUAAUACCG [Same State Theophylline B GF 26]”: the “apparent KD of MS2 coat protein” value with MS2 coat protein (input ligand: arginine 13.2 mM) stood at 38.5 nM; in the series on MS2 coat protein (setting [2]), 51.1 nM; in the series on MS2 coat protein (setting [4]), 39.2 nM.
Turning to “AAGCAUUGGUCUGAUACCAGUUGAUGACGAAUACGUCAACUGGAGUGAUGUUCCUAAAACAACCCUUGGCAGCAGACCGAUGCAA [MAT - Same State Theophlline B - Mod of Eli - D2]”, the “apparent KD of K4 kissing-loop reporter” value in series [1] (input ligand: FMN 200 uM) was 761 nM; in series [1] (input ligand: arginine 13.2 mM), 704 nM; in series [1] (input ligand: none), 835 nM; in series [1] (setting [2]), 750 nM; in series [1] (setting [4]), 838 nM.
On to “UGUACCGAGUCAGGAUAUGGCGUCGAAAGACGAAUCCUAGUGAUGUUAGGGAUCUGCGAAAGCAGUCCAGAAGGGACUUGGUACU [FmnBS 26 #SwitchBubble #StaticStem #DoubleMagnetSystem]”, for which the “apparent KD of K4 kissing-loop reporter” value in series [1] (input ligand: FMN 200 uM) worked out at 275 nM; in series [1] (input ligand: arginine 13.2 mM), 340 nM; in series [1] (input ligand: none), 357 nM; in series [1] (setting [2]), 389 nM; in series [1] (setting [4]), 373 nM.
For “UAUUAAUAAUUAUUCUAGUGAUGUUAGAUACGAGGACCGGUACGGCCGCCACUCGCUUAUUGGUUUAUAAAUUUUAUAUUAUUUA [JR_SSTryptoA_Sub017]”, the “apparent KD of K4 kissing-loop reporter” value in series [1] (input ligand: FMN 200 uM) came to 185 nM; in series [1] (input ligand: arginine 13.2 mM), 207 nM; in series [1] (input ligand: none) it was 186 nM; in series [1] (setting [2]), 208 nM; in series [1] (setting [4]), 164 nM.
For “UGUCAUUGGUCGGCCGCCACUUCAUGUAGAGUGAUGUUCUGUAAGACGGAUCGAAAGAUCUGUCGAAGGACCGGGACCGAUGACU [FiskerMod 13 - Jieux - Same State - Tryptophan B]”, in that order: 1090 nM, 303 nM, 855 nM, 868 nM and 326 nM.
